From patent US20190062438A1 (CSL, published 2019)

Columns and labels:
Test in all cases: SPR, kinetics, Fab over captured mutant
shCD131 N337A = biological target: T1, shCD131 N337A (human, UniProt P32927 17-438)
T1 construct: C-terminal 6xHis
T1 sequence: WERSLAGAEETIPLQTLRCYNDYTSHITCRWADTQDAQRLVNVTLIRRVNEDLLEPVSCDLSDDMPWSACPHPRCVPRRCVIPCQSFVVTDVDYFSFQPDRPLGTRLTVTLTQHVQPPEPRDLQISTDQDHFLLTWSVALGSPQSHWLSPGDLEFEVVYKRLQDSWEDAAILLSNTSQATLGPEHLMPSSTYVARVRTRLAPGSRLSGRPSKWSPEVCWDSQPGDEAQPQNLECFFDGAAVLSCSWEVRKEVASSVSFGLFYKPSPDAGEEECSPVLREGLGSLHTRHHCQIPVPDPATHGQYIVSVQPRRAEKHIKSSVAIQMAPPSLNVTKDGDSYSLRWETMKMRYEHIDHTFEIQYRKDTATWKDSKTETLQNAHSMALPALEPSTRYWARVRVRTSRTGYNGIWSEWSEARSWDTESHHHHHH

shCD131 M363A = biological target: T2, shCD131 M363A (human, UniProt P32927 17-438)
T2 construct: C-terminal 6xHis
T2 sequence: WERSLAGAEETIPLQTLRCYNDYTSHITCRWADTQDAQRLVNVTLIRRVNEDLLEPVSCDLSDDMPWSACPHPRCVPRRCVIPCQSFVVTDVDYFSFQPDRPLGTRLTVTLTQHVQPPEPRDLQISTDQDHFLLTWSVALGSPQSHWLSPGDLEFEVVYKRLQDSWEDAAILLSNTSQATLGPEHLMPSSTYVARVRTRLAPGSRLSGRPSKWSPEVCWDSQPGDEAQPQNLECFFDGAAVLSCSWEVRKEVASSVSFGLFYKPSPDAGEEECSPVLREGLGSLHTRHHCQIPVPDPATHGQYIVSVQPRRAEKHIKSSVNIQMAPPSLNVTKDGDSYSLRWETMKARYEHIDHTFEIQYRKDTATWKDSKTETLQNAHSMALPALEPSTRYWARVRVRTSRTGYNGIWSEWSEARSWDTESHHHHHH

shCD131 R364A = biological target: T3, shCD131 R364A (human, UniProt P32927 17-438)
T3 construct: C-terminal 6xHis
T3 sequence: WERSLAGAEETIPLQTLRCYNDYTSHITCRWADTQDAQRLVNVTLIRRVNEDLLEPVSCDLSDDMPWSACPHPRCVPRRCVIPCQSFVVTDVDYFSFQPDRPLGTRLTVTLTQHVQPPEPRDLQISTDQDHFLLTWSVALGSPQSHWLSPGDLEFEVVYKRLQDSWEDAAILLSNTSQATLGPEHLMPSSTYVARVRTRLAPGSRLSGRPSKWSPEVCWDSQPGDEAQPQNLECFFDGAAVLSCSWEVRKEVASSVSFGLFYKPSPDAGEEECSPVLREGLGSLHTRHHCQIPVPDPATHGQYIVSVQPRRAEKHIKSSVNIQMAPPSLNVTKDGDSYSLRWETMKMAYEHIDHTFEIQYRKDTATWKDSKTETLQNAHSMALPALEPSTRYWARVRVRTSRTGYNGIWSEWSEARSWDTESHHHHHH

shCD131 G420A = biological target: T4, shCD131 G420A (human, UniProt P32927 17-438)
T4 construct: C-terminal 6xHis
T4 sequence: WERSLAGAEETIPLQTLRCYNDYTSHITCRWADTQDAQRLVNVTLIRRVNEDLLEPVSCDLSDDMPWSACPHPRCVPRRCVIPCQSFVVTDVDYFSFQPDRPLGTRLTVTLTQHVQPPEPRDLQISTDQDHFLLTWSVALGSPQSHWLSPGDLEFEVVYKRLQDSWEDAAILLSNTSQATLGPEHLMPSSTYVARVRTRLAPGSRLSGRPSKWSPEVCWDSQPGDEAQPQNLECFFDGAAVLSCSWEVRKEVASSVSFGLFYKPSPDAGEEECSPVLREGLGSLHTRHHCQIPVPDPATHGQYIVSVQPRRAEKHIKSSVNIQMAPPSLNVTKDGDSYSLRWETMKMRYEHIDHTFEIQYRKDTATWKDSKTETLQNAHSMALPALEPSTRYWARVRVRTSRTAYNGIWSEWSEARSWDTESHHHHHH

- Kd (shCD131 N337A): 91 nM
- Kd (shCD131 M363A): 171 nM
- Kd (shCD131 R364A): 119 nM
- Kd (shCD131 G420A): 63 nM
B1: 9A2 Fab (Fab, V domains shown)
VH: EVQLLESGGGLVQPGGSLRLSCAASGFTFSHYHMLWVRQAPGKGLEWVSSIRSSGGFTYYADSVKGRFTISRDNSKNTLYLQMNSLRAEDTAVYYCARFYDSFFDIWGQGTMVTVSS
VL: DIQMTQSPSSVSASVGDRVTITCRASQGISSWLAWYQQKPGKAPKLLIYAASSLQSGVPSRFSGSGSGTDFTLTISSLQPEDFATYYCQQANSFPITFGQGTRLEIKR
notes: also called recombinant Fab of 9A2
